Test results as given in US20110142851A1 (EMERGENT PRODUCT DEVELOPMENT SEATTLE, published 2011).
Read-outs that look alike come from different tables or passages of the source.

T1: recombinant human soluble IL6 receptor (human, UniProt P08887 20-358)
T1 construct: also called sIL6R; sIL-6R
T1 sequence (looked up): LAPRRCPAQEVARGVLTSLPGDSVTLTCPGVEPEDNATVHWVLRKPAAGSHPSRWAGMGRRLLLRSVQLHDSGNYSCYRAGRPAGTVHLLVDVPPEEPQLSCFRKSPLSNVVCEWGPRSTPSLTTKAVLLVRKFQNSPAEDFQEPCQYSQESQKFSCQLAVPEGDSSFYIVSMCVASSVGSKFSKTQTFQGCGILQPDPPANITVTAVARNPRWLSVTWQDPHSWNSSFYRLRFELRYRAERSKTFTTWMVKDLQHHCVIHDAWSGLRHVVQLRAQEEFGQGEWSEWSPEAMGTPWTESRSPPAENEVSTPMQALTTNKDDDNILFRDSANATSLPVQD

T2: hu HIL6 Fc dimer (dimeric human HIL6/mouse IgG Fc fusion protein) (human)
T2 construct: also called human hyper-IL6 (IL6R-IL6-mIgG); dimeric HIL6
T2 chain: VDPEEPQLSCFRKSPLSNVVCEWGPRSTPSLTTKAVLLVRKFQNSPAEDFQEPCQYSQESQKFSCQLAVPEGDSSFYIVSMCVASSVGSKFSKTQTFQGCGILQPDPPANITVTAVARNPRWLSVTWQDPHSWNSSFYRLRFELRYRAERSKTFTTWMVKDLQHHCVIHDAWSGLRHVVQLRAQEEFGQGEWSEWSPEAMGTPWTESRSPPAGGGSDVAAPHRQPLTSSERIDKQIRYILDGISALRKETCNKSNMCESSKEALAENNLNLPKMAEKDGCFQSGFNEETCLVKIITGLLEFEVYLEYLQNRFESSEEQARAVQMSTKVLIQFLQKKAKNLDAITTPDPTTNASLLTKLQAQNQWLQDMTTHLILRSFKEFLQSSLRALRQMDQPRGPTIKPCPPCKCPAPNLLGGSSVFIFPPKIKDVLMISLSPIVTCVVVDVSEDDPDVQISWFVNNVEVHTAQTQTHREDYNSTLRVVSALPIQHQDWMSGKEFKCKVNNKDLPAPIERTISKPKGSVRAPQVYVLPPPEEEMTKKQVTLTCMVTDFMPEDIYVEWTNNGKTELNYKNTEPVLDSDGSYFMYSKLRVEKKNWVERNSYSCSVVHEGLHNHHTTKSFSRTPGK

T3: sIL6R Fc dimer (UniProt P08887 20-358, limits assumed)
T3 construct: not shown: Fc
T3 sequence (looked up): T1 sequence (looked up)

T4: hu HIL6 AFH monomer (human)
T4 chain: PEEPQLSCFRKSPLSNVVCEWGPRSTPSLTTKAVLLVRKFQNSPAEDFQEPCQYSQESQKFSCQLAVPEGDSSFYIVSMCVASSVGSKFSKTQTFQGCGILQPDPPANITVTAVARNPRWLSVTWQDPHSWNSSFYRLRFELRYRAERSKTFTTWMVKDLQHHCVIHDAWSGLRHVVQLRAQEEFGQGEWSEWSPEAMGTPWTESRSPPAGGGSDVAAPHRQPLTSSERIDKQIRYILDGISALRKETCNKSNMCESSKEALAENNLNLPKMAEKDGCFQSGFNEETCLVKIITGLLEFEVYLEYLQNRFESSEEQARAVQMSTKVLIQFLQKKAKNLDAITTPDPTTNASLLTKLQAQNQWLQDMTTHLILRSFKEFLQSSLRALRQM

B1: TRU(X6T)-1019 (Fc fusion)
chain: EVQLLESGGGLVQPGGSLRLSCAASGFTFSWYLMHWVRQAPGKGLEWVSGIWPSGGHTLYADSVKGRFTISRDNSKNTLYLQMNSLRAEDTAVYYCAREPLLWFGELSYNWFDPWGQGTLVTVSSGGGGSGGGGSGGGGSQDIQMTQSPSSVSASVGDRVTITCRASQGISSWLAWYQQKPGKAPKLLIYAASSLQSGVPSRFSGSGSGTDFTLTISSLQPEDFATYYCQQANSFPLTFGGGTKVEIKTGEPKSSDKTHTCPPCPAPEAAGAPSVFLFPPKPKDTLMISRTPEVTCVVVDVSHEDPEVKFNWYVDGVEVHNAKTKPREEQYNSTYRVVSVLTVLHQDWLNGKAYACAVSNKALPAPIEKTISKAKGQPREPQVYTLPPSRDELTKNQVSLTCLVKGFYPSDIAVEWESNGQPENNYKTTPPVLDSDGSFFLYSKLTVDKSRWQQGNVFSCSVMHEALHNHYTQKSLSLSPGQRHNNSSLNTRTQKARHSPNSLPAQVAFTPYAPEPGSTCRLREYYDQTAQMCCSKCSPGQHAKVFCTKTSDTVCDSCEDSTYTQLWNWVPECLSCGSRCSSDQVETQACTREQNRICTCRPGWYCALSKQEGCRLCAPLRKCRPGFGVARPGTETSDVVCKPCAPGTFSNTTSSTDICRPHQICNVVAIPGNASMDAVCTSTSPTRSMAPGAVHLPQPVSTRSQHTQPTPEPSTAPSTSFLLPMGPSPPAEGSTGD
B2: TRU(XT6)-1058 (Fc fusion)
chain: LPAQVAFTPYAPEPGSTCRLREYYDQTAQMCCSKCSPGQHAKVFCTKTSDTVCDSCEDSTYTQLWNWVPECLSCGSRCSSDQVETQACTREQNRICTCRPGWYCALSKQEGCRLCAPLRKCRPGFGVARPGTETSDVVCKPCAPGTFSNTTSSTDICRPHQICNVVAIPGNASMDAVCTSTSPTRSMAPGAVHLPQPVSTRSQHTQPTPEPSTAPSTSFLLPMGPSPPAEGSTGDTGEPKSSDKTHTCPPCPAPEAAGAPSVFLFPPKPKDTLMISRTPEVTCVVVDVSHEDPEVKFNWYVDGVEVHNAKTKPREEQYNSTYRVVSVLTVLHQDWLNGKAYACAVSNKALPAPIEKTISKAKGQPREPQVYTLPPSRDELTKNQVSLTCLVKGFYPSDIAVEWESNGQPENNYKTTPPVLDSDGSFFLYSKLTVDKSRWQQGNVFSCSVMHEALHNHYTQKSLSLSPGQRHNNSSLNTRTQKARHSPNSEVQLLESGGGLVQPGGSLRLSCAASGFTFSMYTMHWVRQAPGKGLEWVSWISPSGGWTKYADSVKGRFTISRDNSKNTLYLQMNSLRAEDTAVYYCAVSPWGGPFDYWGQGTLVTVSSGGGGSGGGGSGGGGSQDIQMTQSPSTLSASVGDRVTITCRASQSISSWLAWYQQKPGKAPKLLIYKASTLESGVPSRFSAGGSGTEFTLTISSLQPDDFGTYYCQQYNSYSLTFGGGTKVEII
notes: Xceptor, TNFRSF1B ectodomain N-terminal, anti-IL6xR domain C-terminal
B3: TRU(S6)-1029 (Fc fusion)
chain: EVQLLESGGGLVQPGGSLRLSCAASGFTFSSYWMHWVRQAPGKGLEWVSSIYPSGGSTEYADSVKGRFTISRDNSKNTLYLQMNSLRAEDTAVYYCAKGIWFDPWGQGTLVTVSSGGGGSGGGGSGGGGSQDIQMTQSPATLSASVGDRVTITCRSSQRISGYLNWYQQQPGKAPKLLIYAASTLQSGVPSRISGSGSGTDFSLIISSLQPEDVATYYCQQSYSPPFTFGGGTKVEIKTGEPKSSDKTHTCPPCPAPEAAGAPSVFLFPPKPKDTLMISRTPEVTCVVVDVSHEDPEVKFNWYVDGVEVHNAKTKPREEQYNSTYRVVSVLTVLHQDWLNGKAYACAVSNKALPAPIEKTISKAKGQPREPQVYTLPPSRDELTKNQVSLTCLVKGFYPSDIAVEWESNGQPENNYKTTPPVLDSDGSFFLYSKLTVDKSRWQQGNVFSCSVMHEALHNHYTQKSLSLSPGK
notes: SMIP (scFv - linker - CH2CH3)
B4: TRU(S6)-1025 (Fc fusion)
chain: EVQLLESGGGLVQPGGSLRLSCAASGFTFSHYGMHWVRQAPGKGLEWVSSIYPGMTQYADSVKGRFTISRDNSKNTLYLQMNSLRAEDTAVYYCARDRGSGIDAFDIWGQGTMVTVSSGGGGSGGGGSGGGGSQSELTQPPSVSVSPGQTATVSCSGEKLGDRYAWWYQQKAGQSPVLVIYQDTKRPSGVPDRFSGSNSGTSASLVISGPQSEDEADYYCAAWDDSLKGVVFGGGSKLTVLTGEPKSSDKTHTCPPCPAPEAAGAPSVFLFPPKPKDTLMISRTPEVTCVVVDVSHEDPEVKFNWYVDGVEVHNAKTKPREEQYNSTYRVVSVLTVLHQDWLNGKAYACAVSNKALPAPIEKTISKAKGQPREPQVYTLPPSRDELTKNQVSLTCLVKGFYPSDIAVEWESNGQPENNYKTTPPVLDSDGSFFLYSKLTVDKSRWQQGNVFSCSVMHEALHNHYTQKSLSLSPGK
notes: SMIP (scFv - linker - CH2CH3)
B5: TRU(XT6)-1019 (Fc fusion)
chain: LPAQVAFTPYAPEPGSTCRLREYYDQTAQMCCSKCSPGQHAKVFCTKTSDTVCDSCEDSTYTQLWNWVPECLSCGSRCSSDQVETQACTREQNRICTCRPGWYCALSKQEGCRLCAPLRKCRPGFGVARPGTETSDVVCKPCAPGTFSNTTSSTDICRPHQICNVVAIPGNASMDAVCTSTSPTRSMAPGAVHLPQPVSTRSQHTQPTPEPSTAPSTSFLLPMGPSPPAEGSTGDTGEPKSSDKTHTCPPCPAPEAAGAPSVFLFPPKPKDTLMISRTPEVTCVVVDVSHEDPEVKFNWYVDGVEVHNAKTKPREEQYNSTYRVVSVLTVLHQDWLNGKAYACAVSNKALPAPIEKTISKAKGQPREPQVYTLPPSRDELTKNQVSLTCLVKGFYPSDIAVEWESNGQPENNYKTTPPVLDSDGSFFLYSKLTVDKSRWQQGNVFSCSVMHEALHNHYTQKSLSLSPGQRHNNSSLNTRTQKARHSPNSEVQLLESGGGLVQPGGSLRLSCAASGFTFSWYLMHWVRQAPGKGLEWVSGIWPSGGHTLYADSVKGRFTISRDNSKNTLYLQMNSLRAEDTAVYYCAREPLLWFGELSYNWFDPWGQGTLVTVSSGGGGSGGGGSGGGGSQDIQMTQSPSSVSASVGDRVTITCRASQGISSWLAWYQQKPGKAPKLLIYAASSLQSGVPSRFSGSGSGTDFTLTISSLQPEDFATYYCQQANSFPLTFGGGTKVEIK
notes: as for B2

Tests used:
[1] = molecular target: T5, recombinant human TNF-α (human, UniProt P01375 77-233); experiment: ELISA, Xceptor captured by anti-human Fc
T5 construct: also called rhTNFα
T5 sequence (P01375 77-233 limits assumed): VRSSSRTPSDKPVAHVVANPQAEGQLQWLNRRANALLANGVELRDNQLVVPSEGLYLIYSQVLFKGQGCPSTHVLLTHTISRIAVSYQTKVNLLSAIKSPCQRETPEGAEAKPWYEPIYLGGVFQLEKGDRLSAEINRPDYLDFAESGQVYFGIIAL

[2] = molecular target: T1, recombinant human soluble IL6 receptor; experiment: ELISA, Xceptor captured by anti-human Fc
[3] = molecular target: T6, recombinant human IL6 (human, UniProt P05231 30-212); experiment: SPR Biacore T100, binder captured by anti-human Fc
T6 construct: also called rhIL6; IL6 monomer

[4] = molecular target: T2, hu HIL6 Fc dimer (dimeric human …); experiment: SPR Biacore T100, binder captured by anti-human Fc
[5] = molecular target: T3, sIL6R Fc dimer; experiment: SPR Biacore T100, binder captured by anti-human Fc
[6] = molecular target: T4, hu HIL6 AFH monomer; experiment: SPR Biacore T100, binder captured by anti-human Fc
[7] = molecular target: T3, sIL6R Fc dimer; experiment: SPR Biacore T100, binder captured by anti-human Fc; remark: listed apart in the source
Procedure: (§1) Binding affinities and kinetic rate constants of interaction of hyper-IL6 (HIL6; monomer or dimer), and its components IL6 and sIL6R, with different anti-HIL6 binding domains in scFv, SMIP, Xceptor and reverse Xceptor formats were determined using a Biacore® T100 instrument (GE Healthcare, Piscataway, N.J.).
(§2) Anti-HIL6 SMIPS, Xceptors, and reverse Xceptors were captured by a monoclonal mouse anti-human Fc, which was covalently conjugated to a carboxylmethyl dextran (CM4) surface via amines using N-ethyl-N′-(3-dimethylaminopropyl)-carbodiimide hydrochloride and N-hydroxysuccinimide. The unoccupied sites of the activated surface were blocked by ethanolamine. […] In every cycle, three different HIL6 binders were captured on flow cells 2, 3 and 4, while flow cell 1 was used as the reference cell. For each cycle, a single concentration of a single HIL6-related molecule was injected for 150 seconds at 35 microliters per minute, and then allowed to dissociate for 300 seconds. At the end of the cycle, the surface was regenerated gently using 3M MgCl₂, which dissociates protein bound to anti-hFc capture antibody. Multiple cycles were performed to study binding of monomeric or dimeric HIL6 at different concentrations, in the range of 0-100 nM, for each set of three HIL6 binders captured. […] The experiment was performed at 25° C. Signal associated with binding to the reference cell was used to subtract for bulk refractive changes and blank (buffer-only) injections were used to correct for drift and system noise. The kinetic parameters and affinities were determined using BIAevaluation software. Anti-HIL6 scFv molecules were analyzed in the reverse orientation using a dimeric human HIL6/mouse IgG Fc fusion protein captured by an immobilized rabbit polyclonal anti-mouse IgG Fc antibody on the surface and injecting different concentrations of scFv over the surface. For the HIL6 components IL6 (eBioscience, catalog no. 14-8069) and sIL6R, a single 100 nM injection was performed to obtain a qualitative assessment of binding.

[8] = molecular target: T4, hu HIL6 AFH monomer; experiment: SPR Biacore T100, binder captured by anti-human Fc
Procedure: as §1, §2

[9] = molecular target: T6, recombinant human IL6; experiment: SPR Biacore T100, binder captured by anti-human Fc; remark: listed apart in the source
Procedure: as §1, §2

[10] = molecular target: T2, hu HIL6 Fc dimer (dimeric human …); experiment: SPR Biacore T100, binder captured by anti-human Fc
Procedure: as §1, §2

Binder | binding result [1] | binding result [2] | Kd [3] [nM] | Kd [4] [nM] | binding result [5] | Kd [6] [nM] | binding result [7] | Kd [8] [nM] | binding result [9] | Kd [10] [nM]
B1 | binds | no binding (tested: 75 pM sIL-6R) | 0.57 | 300 | no binding (tested: 100 nM) | 1.9 |  |  |  | 
B2 | binds | no binding (tested: 75 pM sIL-6R) |  |  |  |  |  |  |  | 
B3 |  |  |  |  |  |  | no binding (tested: 100 nM) | 180 |  | 
B4 |  |  |  |  |  |  |  | 2.6 | no binding (tested: 100 nM) | 4.4
B5 | binds | no binding (tested: 75 pM sIL-6R) | 1 | 5.7 | no binding (tested: 100 nM) | 17 |  |  |  | 
